The test system of data set [1] is Chronic lymphocytic leukemia. The data set is described as follows: CP-1019, Chronic lymphocytic leukemia patients treated with MEDI-551 or Rituximab+Bendamustine. Type of data set: in vivo, human. As to conditions: of 22 MEDI-551-treated / 12 Rituximab-treated patients. On the procedure:
miR-629 expression levels were measured in baseline peripheral blood mononucleated cell (PBMC) samples from Chronic lymphocytic leukemia patients treated with MEDI-551 or Rituximab+Bendamustine (CP-1019). • 22 MEDI-551-treated patients (10 CR/PR; 3 PD; 4 SD) • 12 Rituximab-treated patients (6 CR/PR; 2 PD; 2 SD)

Data set [2] concerns SU-DHL-6. Put plainly: ADCC assay after miR-629 over-expression. The class given is cell-based, human. The following applies: SU-DHL-6, miR-629 over-expressed (miR-629 mimic). On the procedure: (§1) FIGS. 14A-D are graphs showing the results of an antibody dependent cytotoxicity (ADCC) assay. miR-629 was overexpressed in the specified cell type, and the cells were then treated with an anti-CD19 antibody (MEDI551).
(§2) The effect of altering miR-629 on sensitivity to treatment with an anti-CD19 antibody (MEDI551) was explored. Human leukemia and lymphoma cell lines Daudi, Toledo, and RL were obtained from American Type Culture Collection (ATCC); Karpas 1106P, Karpas 422, OCI-Ly-19, MEC2 were obtained from Deutsche Sammlung von Mikroorganismen und Zellkulturen (DSMZ, Germany). Cell lines were transfected with […] of a miR-629 mimic (Karpas 1106P, Karpas 422, Daudi, MEC2, OCI-Ly-19, SU-DHL-6, and Toledo), a miR-629 hairpin inhibitor (RL and ARH-77), or respective negative control oligonucleotides (all from Dharmacon) using PrimeFect (Lonza) for 24 hours. CD19 and CD20 surface expression was determined by flow cytometry (LSRII, BD Biosciences) using their respective fluorescently labeled monoclonal antibodies. Surface expression is reported as mean fluorescent intensity (MFI) and was averaged for untransfected as well as miR-629 and negative control transfected cells.

Data set [3] deals with Daudi. The data set is described as follows: ADCC assay after miR-629 over-expression. Type of data set: cell-based, human. As to conditions: miR-629 over-expressed (miR-629 mimic). Here is the method: as §1, §2
Data set [4] deals with Toledo. The data set is described as follows: ADCC assay after miR-629 over-expression. Type of data set: cell-based, human. As to conditions: miR-629 over-expressed (miR-629 mimic). On the procedure:
as §1, §2

Data set [5] deals with MEC-2. Put plainly: ADCC assay after miR-629 over-expression. The class given is cell-based, human. As to conditions: MEC-2, miR-629 over-expressed (miR-629 mimic). Here is the method: as §1, §2
The test system of data set [6] is Karpas 422 cells expressing miR-629. The data set is described as follows: in vitro ADCC in miR-629 over-expressing cells. The class given is cell-based, human. As to conditions: miR-629 over-expression vs vector control. On the procedure:
FIGS. 12A and 12B are graphs. […] LDH release has been a known prognostic factor in lymphoma for many years and is measured routinely in clinical practice. […] Therefore, it is likely that miR-629 expression levels are related to the aggressiveness of the tumor. This could, in part, explain the correlation between miR-629 and response to MEDI-551.
The diffuse large B-cell lymphoma cell line Karpas-422 was transduced with a lentiviral vector over-expressing miR-629 or a scrambled miRNA control (Open Biosystems, Huntsville, Ala.) at an MOI of 2-20. Transduced cells were expanded for 1-2 weeks. Utilizing RFP, cells were sorted by fluorescence-activated cell sorting (FACS) into high miR-629 and low miR-629 populations. Clones were also generated using the limiting dilution method. Over-expression of miR-629 was evaluated by TaqMan QPCR.

Data set [7] relates to DB (diffuse large cell lymphoma). Put plainly: in vitro ADCC assay. The class given is cell-based, human.
For data set [8], the system named is Oci-Ly-19. The data set is described as follows: in vitro ADCC assay. Type of data set: cell-based, human. As to conditions: Oci-Ly-19, in vitro ADCC.
In data set [9] the test system is SUD-HL-6. Put plainly: in vitro ADCC assay. The class given is cell-based, human. The following applies: SUD-HL-6, in vitro ADCC.
The subject of data set [10] is Relapsed or Refractory Advanced B-Cell Malignancies. Put plainly: Clinical Trial No. CP204, Phase 1 dose-escalation study of MEDI-551 as a single agent. The class given is in vivo, human. On the procedure: miR-629 expression levels were measured in baseline whole blood samples from diffuse large B cell lymphoma (DLBCL), follicular lymphoma (FL), and Chronic lymphocytic leukemia (CLL) patients treated with an anti-CD19 antibody treatment as a single agent in Clinical Trial No. CP204, A Phase 1, Dose-escalation Study of MEDI-551, a Humanized Monoclonal Antibody Directed Against CD19, in Adult Subjects With Relapsed or Refractory Advanced B-Cell Malignancies.

The test system of data set [11] is Karpas-422. The data set is described as follows: in vitro Antibody-dependent cellular cytotoxicity (ADCC) assay. Type of data set: cell-based, human. The following applies: Karpas-422, in vitro ADCC.
For data set [12], the system named is diffuse large B-cell lymphoma cell lines. The data set is described as follows: in vitro ADCC assays, high versus low sensitivity cell lines. Type of data set: cell-based, human. As to conditions: in other cases 1000-fold or more. The source says:
The following microRNAs had significant differences: miR-629; miR-99b; miR-let-7e; miR-15a; and miR-29a.

The test system of data set [13] is Toledo cell lines. Put plainly: in vitro ADCC assay. The class given is cell-based, human.
Data set [14] addresses FccRIIIA (Homo sapiens, UniProt P08637). As to conditions: afucosylated mAb relative to mAb anti-CD19-2; cited from earlier work.
The subject of data set [15] is RL. Put plainly: in vitro ADCC assay. The class given is cell-based, human.
The conditions of data set [16]: afucosylated mAb relative to mAb anti-CD19-2; cited from earlier work.
The test system of data set [17] is ARH-77. The data set is described as follows: in vitro ADCC assay. The class given is cell-based, human. The following applies: ARH-77, in vitro ADCC.

Chain of FccRIIIA (P08637 17-254): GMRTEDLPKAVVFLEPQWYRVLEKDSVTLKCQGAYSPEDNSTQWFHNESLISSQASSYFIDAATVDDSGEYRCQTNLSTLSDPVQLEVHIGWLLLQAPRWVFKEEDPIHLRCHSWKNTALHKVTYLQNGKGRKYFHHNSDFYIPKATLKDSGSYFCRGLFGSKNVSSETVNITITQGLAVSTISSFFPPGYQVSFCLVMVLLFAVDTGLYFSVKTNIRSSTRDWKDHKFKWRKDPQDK

On to “Rituximab: anti-CD20 antibody therapy used as comparator [reference compound]”, for which, in [1], the “CR/PR, number of patients” value amounted to 6 and the “PD, number of patients” value worked out at 2.

B1: MEDI-551: afucosylated form of the CD19 mAb anti-CD19-2, developed by humanization and affinity optimization of the HB12b mAb (antibody, chains of the INN, looked up, V domains shown)
VH: EVQLVESGGGLVQPGGSLRLSCAASGFTFSSSWMNWVRQAPGKGLEWVGRIYPGDGDTNYNVKFKGRFTISRDDSKNSLYLQMNSLKTEDTAVYYCARSGFITTVRDFDYWGQGTLVTVSS
VL: EIVLTQSPDFQSVTPKEKVTITCRASESVDTFGISFMNWFQQKPDQSPKLLIHEASNQGSGVPSRFSGSGSGTDFTLTINSLEAEDAATYYCQQSKEVPFTFGGGTKVEIK
modifications: afucosylated
B1: the difference in cytotoxicity in data set [2] and in data set [4] was 15-20% throughout. Also, the “reduced sensitivity to anti-CD19 antibody” value in data set [3] and in data set [5] was 15-25% each time. Besides, in data set [1], the “CR/PR, number of patients” value worked out at 10. For the same molecule, in [1], the “PD, number of patients” value is given as 3. Moreover, the “shift in Ec50 for anti-CD19 antibody treatment in in vitro ADCC” value in [6] is on record as “slight shift”. The “sensitivity to anti-CD19 antibody treatment” value is “low sensitivity” in data set [7]; “high sensitivity” in data set [8]; “high sensitivity” in [9]; “highly sensitive” in data set [11]; “high sensitivity” in data set [11] (listed as anti-CD19 antibody); “high sensitivity” in data set [13]. For the same molecule, the “sensitivity to anti-CD19 antibody treatment” value in data set [15] and in [17] was “low sensitivity” each time. Also, the “CR/PR (complete or partial response), number of patients” value in data set [10] (Chronic lymphocytic leukemia) is on record as 3; in data set [10] (diffuse large B-cell lymphoma), 5; in data set [10] (follicular lymphoma), 6. Besides, the “PD (progressive disease), number of patients” value amounted to 3 in data set [10] (Chronic lymphocytic leukemia), 10 in [10] (diffuse large B-cell lymphoma) and 2 in data set [10] (follicular lymphoma). Also, the “EC50s for the high sensitivity cell lines lower than the low sensitivity cell lines” value in [12] is reported as “at least 100 fold”. In addition, the “affinity to FccRIIIA” value in [14] is listed as “increased”. Moreover, the ADCC activity entry in data set [16] is reported as “enhanced”.

Source of the values: US20170088628A1, “Compositions and Methods for Identifying B Cell Malignancies Responsive to B Cell Depleting Therapy” (MedImmune, LLC, priority 2014, published 2017).
